This assay deals with biotin-labeled HNRNPA1 peptide carrying R194 symmetric dimethylation (SDMA). The assay can be described thus: BLI; Octet-RED96; biotinylated R194 SDMA HNRNPA1 peptide immobilised on streptavidin biosensors at 10 µg/mL; ZMYND11-MYND serially diluted three-fold from 333 nM in PBST; 300 s association, 300 s dissociation; 1:1 binding model. Background: In BLI a coated tip is dipped into the sample, and binding shifts an interference pattern.

In general, Kd refers to the constant that tells how readily two partners part at equilibrium.

In the case of “His-tagged recombinant MYND domain of ZMYND11 (domain or fragment)”, the equilibrium dissociation constant (Kd) turned out to be 3.5 nM.

For the origin of these results see PMC11438962.
